# Measured values published in patent US20070202098A1.
# Key:
# [1] = molecular target: extracellular region of human V158 FcγRIIIa fused with glutathione S-Transferase (GST) (human) (UniProt P08637); experiment: AlphaScreen competition
# [2] = molecular target: His-tagged V158 FcγRIIIa (human) (UniProt P08637); experiment: SPR, receptor immobilized, antibody flowed
# [3] = molecular target: FcγRIIIa on human PBMC effector cells (heterozygous V158/F158 or allotype not stated) (human) (UniProt P08637); experiment: cell-based or functional assay
# [4] = molecular target: His-tagged V158 FcγRIIIa (human) (UniProt P08637); experiment: SPR
# [5] = molecular target: extracellular region of human F158 FcγRIIIa, GST-tagged (human) (UniProt P08637); experiment: SPR
# [6] = molecular target: extracellular region of human F158 FcγRIIIa, GST-tagged (human) (UniProt P08637); experiment: AlphaScreen competition
# extracellular region of human V158 FcγRIIIa fused with glutathione S-Transferase (GST) (human), sequence (P08637 17-208 F176V): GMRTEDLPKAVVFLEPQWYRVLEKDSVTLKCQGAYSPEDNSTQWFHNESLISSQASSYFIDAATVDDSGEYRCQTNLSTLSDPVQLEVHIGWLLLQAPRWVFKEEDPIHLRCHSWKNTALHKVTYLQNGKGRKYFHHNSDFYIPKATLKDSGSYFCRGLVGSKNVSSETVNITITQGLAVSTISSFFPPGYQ
# His-tagged V158 FcγRIIIa (human), sequence (P08637 17-208 F176V): as above
# extracellular region of human F158 FcγRIIIa, GST-tagged (human), sequence (P08637 17-208): as the sequence (P08637 17-208 F176V) above, with V160F counted along it
# FcγRIIIa on human PBMC effector cells (heterozygous V158/F158 or allotype not stated) (human), sequence (P08637 17-254): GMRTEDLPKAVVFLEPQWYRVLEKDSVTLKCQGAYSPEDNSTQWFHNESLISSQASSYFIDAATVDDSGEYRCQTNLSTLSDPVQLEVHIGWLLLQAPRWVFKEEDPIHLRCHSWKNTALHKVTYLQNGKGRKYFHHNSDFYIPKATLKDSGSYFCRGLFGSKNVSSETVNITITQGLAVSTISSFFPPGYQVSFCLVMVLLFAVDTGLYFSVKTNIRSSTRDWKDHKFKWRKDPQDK
FcγRIIIa Fold [1] [fold],Substance,further results
0.66,trastuzumab Fc variant 248 N276R (antibody),–
0.85,trastuzumab Fc variant 222 E233D (antibody),–
0.56,trastuzumab Fc variant 250 N276Y (antibody),–
1.09,trastuzumab Fc variant 221 P230A (antibody),–
0.07,trastuzumab Fc variant 291 L234I/L235D (antibody),–
0.83,trastuzumab Fc variant 263 V323I (antibody),–
–,alemtuzumab Fc variant 3 V264I (antibody),Kd [2]: 0.064 µM
28,trastuzumab Fc variant 295 S239D/A330Y/I332E/V240I (antibody),–
1.01,trastuzumab Fc variant 256 V302I (antibody),–
–,alemtuzumab Fc variant 35 S298A (antibody),Kd [2]: 0.052 µM
–,alemtuzumab Fc variant 22 I332E (antibody),Kd [2]: 0.031 µM
0.41,trastuzumab Fc variant 254 Y278W (antibody),–
0.41,trastuzumab Fc variant 246 N276S (antibody),–
17.7,trastuzumab Fc variant 296 S239D/A330Y/I332E/V264T (antibody),–
1.11,trastuzumab Fc variant 245 F275W (antibody),–
1.88,trastuzumab Fc variant 273 K326T (antibody),–
2.79,trastuzumab Fc variant 288 T335D (antibody),–
1.56,trastuzumab Fc variant 290 T335Y (antibody),–
6.11,trastuzumab Fc variant 241 K274E (antibody),–
0.9,trastuzumab Fc variant 252 Y278E (antibody),–
1.72,trastuzumab Fc variant 292 V240I/V266I (antibody),–
64.1,trastuzumab Fc variant 298 S239D/A330Y/I332E/K326E (antibody),–
0.87,trastuzumab Fc variant 247 N276E (antibody),–
22.4,trastuzumab Fc variant 293 S239D/A330Y/I332E/L234I (antibody),–

FcγRIIIa Fold [1] [fold],Substance,further results
56.1,alemtuzumab Fc variant 90 S239D/I332E (antibody),"ADCC EC50, DoHH-2 targets, human PBMCs [3]: 3 ng/mL; ADCC Fold Improvement Over WT [3]: 3.3 fold; ADCC log(EC50), DoHH-2 targets, human PBMCs [3]: 0.49 log(ng/ml)"
8.7,trastuzumab Fc variant 238 E272Y (antibody),–
1.06,trastuzumab Fc variant 244 K274Y (antibody),–
–,alemtuzumab Fc variant 37 S298A/E333A/K334A (antibody),Kd [2]: 0.039 µM
59.1,trastuzumab Fc variant 219 S239D/I332E/A330I (antibody),–
0.75,trastuzumab Fc variant 282 E333H (antibody),–
2.58,trastuzumab Fc variant 289 T335R (antibody),–
0.78,trastuzumab Fc variant 281 E333T (antibody),–
1.17,trastuzumab Fc variant 268 S324V (antibody),–
0.67,trastuzumab Fc variant 255 E283R (antibody),–
12.5,alemtuzumab Fc variant 30 V264I/I332E (antibody),"Fold (Kd, over WT) [4]: 4 fold; Fold (Kd, over WT) [5]: 14 fold; Kd [5]: 0.052 µM; ADCC EC50, DoHH-2 targets, human PBMCs [3]: 4 ng/mL; ADCC Fold Improvement Over WT [3]: 2.5 fold; ADCC log(EC50), DoHH-2 targets, human PBMCs [3]: 0.6 log(ng/ml); Kd [2]: 0.017 µM; Fold (IC50, over WT) [6]: 15.6 fold; IC50 [6]: 0.0011 µM; Fold (IC50, over WT) [1]: 12.8 fold; IC50 [1]: 0.0005 µM"
1.09,trastuzumab Fc variant 243 K274L (antibody),–
7.04,trastuzumab Fc variant 294 S239D/A330Y/I332E/L235D (antibody),–
1.87,trastuzumab Fc variant 224 P230A/E233D/I332E (antibody),–
0.92,trastuzumab Fc variant 223 P230A/E233D (antibody),–
1.06,trastuzumab Fc variant 257 E318R (antibody),–
1.87,trastuzumab Fc variant 251 Y278T (antibody),–
1.15,trastuzumab Fc variant 267 S324I (antibody),–
0.98,trastuzumab Fc variant 270 S324Y (antibody),–
1.41,trastuzumab Fc variant 240 K274T (antibody),–
1.43,trastuzumab Fc variant 272 K326I (antibody),–
0.79,trastuzumab Fc variant 239 V273I (antibody),–
1.41,trastuzumab Fc variant 242 K274R (antibody),–
0.71,trastuzumab Fc variant 266 S324R (antibody),–
